We go through 4 substances from patent US6833135.

The subject of the data set is T1, Ms6 integrase (Int) (Mycobacterium phage Ms6).
T1 sequence: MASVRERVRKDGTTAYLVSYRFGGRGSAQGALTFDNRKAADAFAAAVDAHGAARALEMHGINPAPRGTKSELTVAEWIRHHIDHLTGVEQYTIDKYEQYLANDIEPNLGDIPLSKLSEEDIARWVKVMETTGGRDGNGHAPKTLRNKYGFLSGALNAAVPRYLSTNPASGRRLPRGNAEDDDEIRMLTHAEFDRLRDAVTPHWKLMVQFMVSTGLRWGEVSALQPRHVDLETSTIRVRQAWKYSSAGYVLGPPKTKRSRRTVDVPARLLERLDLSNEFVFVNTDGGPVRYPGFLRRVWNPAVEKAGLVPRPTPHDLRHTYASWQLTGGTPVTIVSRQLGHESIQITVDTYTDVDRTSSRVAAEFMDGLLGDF
In words: cell_activity. The conditions noted are these: for activity (transformants/ug DNA): M. smegmatis.

Take “CAGCAGACACCCACATGTCCGTGTTGTCACTGACAACACGGCTCCAGGTTTTCCCAGGTCGCTACAGGTCTAAAAAGGTCGGAACAGAACCACACGGGTGTTTTTTCGCAGGTAAACGCCCATTTCCCCACGATCGAAGGGGTTCGAATCCCCTTAGCTCCACCCAAAACCGCAGGTCAGCGAATCGCCCAGAATCTGACAGCACCGATGACATCACAACGGATAGAATCCGGGTATGGCATCAGTGCGTGAACGGGTCCGCAAAGAC (double strand) [Ms6 attP region, 273 bp (pAV3, primers p13/p2N)]”: the activity (colonies/ug DNA) (integrase in trans from suicide helper pAV4, about) was 40000. The substance “Ms6 attP-int fragment, 1382 bp (primers pC/p10)” gave an activity (transformants/ug DNA) (no integration) of 0.

Substance “Ms6 attP-int fragment, 1459 bp (primers p1C/p10)” displayed an activity (transformants/ug DNA) (no integration) of 0. “Ms6 attP-int fragment, 1521 bp (primers p13/p10)” gave an activity (transformants/ug DNA) (smallest functional cassette) of 100000.
